From PMC8406831, “High-resolution structure of the amino acid transporter AdiC reveals insights into the role of water molecules and networks in oligomerization and substrate binding” (BMC Biology, 2021)

B1: AdiC-Q88E (natural protein, E. coli)
chain: MSSDADAHKVGLIPVTLMVSGNIMGSGVFLLPANLASTGGIAIYGWLVTIIGALGLSMVYAKMSFLDPSPGGSYAYARRCFGPFLGYETNVLYWLACWIGNIAMVVIGVGYLSYFFPILKDPLVLTITCVVVLWIFVLLNIVGPKMITRVQAVATVLALIPIVGIAVFGWFWFRGETYMAAWNVSGLGTFGAIQSTLNVTLWSFIGVESASVAAGVVKNPKRNVPIATIGGVLIAAVCYVLSTTAIMGMIPNAALRVSASPFGDAARMALGDTAGAIVSFCAAAGCLGSLGGWTLLAGQTAKAAADDGLFPPIFARVNKAGTPVAGLIIVGILMTIFQLSSISPNATKEFGLVSSVSVIFTLVPYLYTCAALLLLGHGHFGKARPAYLAVTTIAFLYCIWAVVGSGAKEVMWSFVTLMVITAMYALNYNRLHKNPYPLDAPISKD
notes: AdiC, L-arginine/agmatine transporter of E. coli (gene from XL1-Blue genomic DNA, vector pZUDF21) with the point mutation Q88E; Residues of the HRV3C site may remain at the C-terminus after cleavage; source: E. coli BL21(DE3) pLysS, purified (Ni-NTA in DDM, on-column HRV3C cleavage); not shown: deca His-tag, C-terminal, cleaved
B2: AdiC-T421V (natural protein, E. coli)
chain: MSSDADAHKVGLIPVTLMVSGNIMGSGVFLLPANLASTGGIAIYGWLVTIIGALGLSMVYAKMSFLDPSPGGSYAYARRCFGPFLGYQTNVLYWLACWIGNIAMVVIGVGYLSYFFPILKDPLVLTITCVVVLWIFVLLNIVGPKMITRVQAVATVLALIPIVGIAVFGWFWFRGETYMAAWNVSGLGTFGAIQSTLNVTLWSFIGVESASVAAGVVKNPKRNVPIATIGGVLIAAVCYVLSTTAIMGMIPNAALRVSASPFGDAARMALGDTAGAIVSFCAAAGCLGSLGGWTLLAGQTAKAAADDGLFPPIFARVNKAGTPVAGLIIVGILMTIFQLSSISPNATKEFGLVSSVSVIFTLVPYLYTCAALLLLGHGHFGKARPAYLAVTTIAFLYCIWAVVGSGAKEVMWSFVTLMVIVAMYALNYNRLHKNPYPLDAPISKD
notes: AdiC, L-arginine/agmatine transporter of E. coli (gene from XL1-Blue genomic DNA, vector pZUDF21) with the point mutation T421V; Residues of the HRV3C site may remain at the C-terminus after cleavage; source: E. coli BL21(DE3) pLysS, purified (Ni-NTA in DDM, on-column HRV3C cleavage); not shown: deca His-tag, C-terminal, cleaved
B3: AdiC-Y367F (natural protein, E. coli)
chain: MSSDADAHKVGLIPVTLMVSGNIMGSGVFLLPANLASTGGIAIYGWLVTIIGALGLSMVYAKMSFLDPSPGGSYAYARRCFGPFLGYQTNVLYWLACWIGNIAMVVIGVGYLSYFFPILKDPLVLTITCVVVLWIFVLLNIVGPKMITRVQAVATVLALIPIVGIAVFGWFWFRGETYMAAWNVSGLGTFGAIQSTLNVTLWSFIGVESASVAAGVVKNPKRNVPIATIGGVLIAAVCYVLSTTAIMGMIPNAALRVSASPFGDAARMALGDTAGAIVSFCAAAGCLGSLGGWTLLAGQTAKAAADDGLFPPIFARVNKAGTPVAGLIIVGILMTIFQLSSISPNATKEFGLVSSVSVIFTLVPYLFTCAALLLLGHGHFGKARPAYLAVTTIAFLYCIWAVVGSGAKEVMWSFVTLMVITAMYALNYNRLHKNPYPLDAPISKD
notes: AdiC, L-arginine/agmatine transporter of E. coli (gene from XL1-Blue genomic DNA, vector pZUDF21) with the point mutation Y367F; Residues of the HRV3C site may remain at the C-terminus after cleavage; source: E. coli BL21(DE3) pLysS, purified (Ni-NTA in DDM, on-column HRV3C cleavage); not shown: deca His-tag, C-terminal, cleaved

Biological target: the molecule itself
Experiment: SEC; Superdex 200 5/150 GL, 20 mM Tris-HCl, pH 8.0, 150 mM NaCl, 0.04% (w/v) DDM; elution volumes of the mutants compared with the wild type

Binding result, binds:
B1
B2
B3
